Assays:
[1] = molecular target: T1, human NaPi2b on NaPi2b-positive cell lines OVCAR-3 and HCC-78 (human, UniProt O95436 1-690); test: cell-based or functional assay
T1 sequence: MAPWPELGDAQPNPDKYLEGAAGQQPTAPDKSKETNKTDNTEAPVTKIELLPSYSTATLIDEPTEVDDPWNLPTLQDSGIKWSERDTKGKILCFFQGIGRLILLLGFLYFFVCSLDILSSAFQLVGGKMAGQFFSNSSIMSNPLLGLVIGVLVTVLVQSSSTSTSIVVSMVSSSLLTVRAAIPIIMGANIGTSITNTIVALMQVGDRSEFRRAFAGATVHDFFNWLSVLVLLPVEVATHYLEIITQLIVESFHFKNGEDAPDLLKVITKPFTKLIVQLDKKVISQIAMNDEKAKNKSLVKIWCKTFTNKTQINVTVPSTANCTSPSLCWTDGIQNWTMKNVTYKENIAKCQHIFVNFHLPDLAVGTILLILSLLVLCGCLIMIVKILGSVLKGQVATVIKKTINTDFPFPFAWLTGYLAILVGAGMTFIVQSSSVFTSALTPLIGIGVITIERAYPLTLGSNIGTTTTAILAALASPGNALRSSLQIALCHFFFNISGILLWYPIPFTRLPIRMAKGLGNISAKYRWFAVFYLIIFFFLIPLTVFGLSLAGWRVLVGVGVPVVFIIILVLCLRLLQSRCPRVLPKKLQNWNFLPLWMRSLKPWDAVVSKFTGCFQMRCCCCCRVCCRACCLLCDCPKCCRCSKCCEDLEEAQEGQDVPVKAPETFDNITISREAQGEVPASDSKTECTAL

[2] = molecular target: T2, recombinant human FcγRIIa/CD32 H131 (Lumit binding immunoassay) (human, UniProt P12318 34-217, limits assumed); test: Lumit FcγRIIa (CD32) (H131) Binding Immunoassay (Promega), competition with Tracer-LgBiT for FcγR-SmBiT, luminescence, n=1; left panel
T2 construct: Kit reagent (Promega), used as an FcγR-SmBiT fusion; also called FcγRIIa/CD32 R131/H131 polymorphism
T2 sequence (looked up): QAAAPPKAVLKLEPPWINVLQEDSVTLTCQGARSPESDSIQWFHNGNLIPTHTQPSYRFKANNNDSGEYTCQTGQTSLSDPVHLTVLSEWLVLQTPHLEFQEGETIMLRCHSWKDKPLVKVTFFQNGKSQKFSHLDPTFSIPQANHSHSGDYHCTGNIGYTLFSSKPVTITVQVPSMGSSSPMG
Method: Luminescence was measured on a microplate reader Infinite M200 Pro (Tecan).
FcγR interaction studies were performed using the Lumit™ FcγR Binding Immunoassays (FcγRn, FcγRI, FcγRIIa/CD32 R131/H131 polymorphism, FcγRIIIa/CD16 V158/F158 polymorphism; Promega) based on a competition principle and luciferase detection according to the manufacturer's instructions. […] Luminescence is measured on a microplate reader Infinite M200 Pro (Tecan)._Graphs show n=1.

B1: AV25-P5(PEG24)-VC-PAB-Exatecan DAR8 ADC (antibody, human IgG1, kappa, L234A L235A)
heavy: not shown
light: DIQMTQSPSSLSASVGDRVTITCSASQDIGNFLNWYQQKPGKTVKVLIYYASSLYSGVPSRFSGSGSGTDYTLTISSLQPEDFATYYCQQYSKLPLTFGQGTKLELKRTVAAPSVFIFPPSDEQLKSGTASVVCLLNNFYPREAKVQWKVDNALQSGNSQESVTEQDSKDSTYSLSSTLTLSKADYEKHKVYACEVTHQGLSSPVTKSFNRGEC
modifications: P5(PEG24)-VC-PAB-Exatecan linker-payload on the interchain cysteine residue (light chain adduct 1; DAR8 in total); P5(PEG24)-VC-PAB-Exatecan linker-payload on interchain cysteine residues (heavy chain adducts up to 3; DAR8 in total)
notes: also called TUB-040
Question: What does the source list for B1?
Answer: cytotoxicity (resazurin assay) on HCC-78, fold lower IC50 against the anti-Napi2b comparison ADC [1]: 15.5 fold; binding result [2]: no binding (tested: 250 µg/ml)

B2: AV25 mAb (LALA-silenced, AV25 HC-LALA) (antibody, human IgG1, kappa, L234A L235A)
heavy: not shown
light: B1 light
notes: IgG1 kappa; also called unmodified AV25 mAb
Question: Does B2 bind [2]?
Answer: no binding (tested: 250 µg/ml)

— patent US20240190958A1 (TUBULIS, published 2024)
